Measured values from the supplement of paper PMC9112550, “Optimization of the antimicrobial peptide Bac7 by deep mutational scanning” (BMC Biology, 2022).
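Further: peptides expressed intracellularly from a pBAD plasmid library in pooled LB shake-flask culture, induced with 0.3% L-arabinose, DNA abundance read by NGS, three biological replicates, DESeq2 with apeglm shrinkage.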

The sequences below were run on Escherichia coli TOP10 (assay: shrunken log2 fold change of peptide-encoding DNA abundance (4.5 h post-induction vs induction); higher = less antimicrobial activity (less host growth inhibition)). Conditions: time post-induction: 4.5 h; library: site-saturation at positions 5, 18, 19, 20.
For RRIRPRPPRLPRPRPRPNRYPRP, the “shrunken log2 fold change” value was -0.0334. RRIRDRPPRLPRPRPRPFYCPRP was tested, and the “shrunken log2 fold change” value was -0.0803. In the case of RRIRERPPRLPRPRPRPDMPPRP, the “shrunken log2 fold change” value is reported as -0.447. RRIRTRPPRLPRPRPRPPTSPRP was tested, and the “shrunken log2 fold change” value was 0.345. In the case of RRIRYRPPRLPRPRPRPVLPPRP, the “shrunken log2 fold change” value is reported as -0.511. RRIRMRPPRLPRPRPRPHSYPRP was tested, and the “shrunken log2 fold change” value was -0.0152. With RRIRDRPPRLPRPRPRPHQEPRP the “shrunken log2 fold change” value was -0.281. With RRIRHRPPRLPRPRPRPELCPRP the “shrunken log2 fold change” value was -0.135. For RRIRTRPPRLPRPRPRPQPHPRP, the “shrunken log2 fold change” value was -0.0402. With RRIRYRPPRLPRPRPRPMHNPRP the “shrunken log2 fold change” value was 0.162. With RRIRKRPPRLPRPRPRPDWSPRP the “shrunken log2 fold change” value was 0.0357. In the case of RRIRRRPPRLPRPRPRPNGDPRP, the “shrunken log2 fold change” value is reported as 0.241. In the case of RRIRTRPPRLPRPRPRPIARPRP, the “shrunken log2 fold change” value is reported as -0.00992. With RRIRPRPPRLPRPRPRPCTDPRP the “shrunken log2 fold change” value was -0.0332. In the case of RRIRQRPPRLPRPRPRPEEQPRP, the “shrunken log2 fold change” value is reported as 0.39. In the case of RRIRFRPPRLPRPRPRPEVLPRP, the “shrunken log2 fold change” value is reported as -0.0031. For RRIRNRPPRLPRPRPRPVWKPRP, the “shrunken log2 fold change” value was 0.119. With RRIRTRPPRLPRPRPRPLTSPRP the “shrunken log2 fold change” value was -0.255. With RRIRWRPPRLPRPRPRPTGLPRP the “shrunken log2 fold change” value was 0.0239. For RRIRIRPPRLPRPRPRPHRQPRP, the “shrunken log2 fold change” value was -0.152. For RRIRVRPPRLPRPRPRPLGFPRP, the “shrunken log2 fold change” value was 0.196. In the case of RRIRFRPPRLPRPRPRPADKPRP, the “shrunken log2 fold change” value is reported as 0.0852. For RRIRVRPPRLPRPRPRPGMHPRP, the “shrunken log2 fold change” value was -0.00805. RRIRCRPPRLPRPRPRPEHLPRP was tested, and the “shrunken log2 fold change” value was -0.0545. For RRIRLRPPRLPRPRPRPRLEPRP, the “shrunken log2 fold change” value was 0.348. RRIRGRPPRLPRPRPRPTAMPRP was tested, and the “shrunken log2 fold change” value was 2.78. For RRIRARPPRLPRPRPRPDTNPRP, the “shrunken log2 fold change” value was -0.0188. In the case of RRIRYRPPRLPRPRPRPYHTPRP, the “shrunken log2 fold change” value is reported as -0.0274. For RRIRDRPPRLPRPRPRPECHPRP, the “shrunken log2 fold change” value was 0.479. With RRIRGRPPRLPRPRPRPDHLPRP the “shrunken log2 fold change” value was 0.117. With RRIRSRPPRLPRPRPRPWTAPRP the “shrunken log2 fold change” value was -0.22. RRIRRRPPRLPRPRPRPHDNPRP was tested, and the “shrunken log2 fold change” value was -0.13. In the case of RRIRARPPRLPRPRPRPKQRPRP, the “shrunken log2 fold change” value is reported as 0.558. For RRIRWRPPRLPRPRPRPGGSPRP, the “shrunken log2 fold change” value was 0.341. With RRIRTRPPRLPRPRPRPTAHPRP the “shrunken log2 fold change” value was 0.0803. With RRIRSRPPRLPRPRPRPQKKPRP the “shrunken log2 fold change” value was -0.0597. In the case of RRIRKRPPRLPRPRPRPDEEPRP, the “shrunken log2 fold change” value is reported as 2.82. In the case of RRIRNRPPRLPRPRPRPGHAPRP, the “shrunken log2 fold change” value is reported as 0.32. With RRIRTRPPRLPRPRPRPESYPRP the “shrunken log2 fold change” value was -0.0242. With RRIRRRPPRLPRPRPRPSPPPRP the “shrunken log2 fold change” value was 0.435. With RRIRNRPPRLPRPRPRPQNGPRP the “shrunken log2 fold change” value was 0.00902. For RRIRMRPPRLPRPRPRPPRCPRP, the “shrunken log2 fold change” value was 1.38. For RRIRKRPPRLPRPRPRPLVPPRP, the “shrunken log2 fold change” value was 0.516. RRIRRRPPRLPRPRPRPVNKPRP was tested, and the “shrunken log2 fold change” value was 0.169. In the case of RRIRARPPRLPRPRPRPWSGPRP, the “shrunken log2 fold change” value is reported as -0.0707. For RRIRCRPPRLPRPRPRPMRRPRP, the “shrunken log2 fold change” value was 0.163. RRIRSRPPRLPRPRPRPVDVPRP was tested, and the “shrunken log2 fold change” value was 0.126. RRIRVRPPRLPRPRPRPQAKPRP was tested, and the “shrunken log2 fold change” value was 0.0434. For RRIRFRPPRLPRPRPRPNTYPRP, the “shrunken log2 fold change” value was -0.499. For RRIRWRPPRLPRPRPRPLRPPRP, the “shrunken log2 fold change” value was 0.923. In the case of RRIRGRPPRLPRPRPRPWFWPRP, the “shrunken log2 fold change” value is reported as 0.6. With RRIRMRPPRLPRPRPRPMFMPRP the “shrunken log2 fold change” value was 0.0101. With RRIRCRPPRLPRPRPRPLNFPRP the “shrunken log2 fold change” value was -0.0754. RRIRQRPPRLPRPRPRPPFHPRP was tested, and the “shrunken log2 fold change” value was 0.102. With RRIRFRPPRLPRPRPRPLSGPRP the “shrunken log2 fold change” value was -0.233. In the case of RRIRSRPPRLPRPRPRPFKRPRP, the “shrunken log2 fold change” value is reported as -0.013. With RRIRIRPPRLPRPRPRPKRRPRP the “shrunken log2 fold change” value was 0.123. In the case of RRIRHRPPRLPRPRPRPRFMPRP, the “shrunken log2 fold change” value is reported as 0.0821. In the case of RRIRTRPPRLPRPRPRPQVIPRP, the “shrunken log2 fold change” value is reported as -0.232. RRIRDRPPRLPRPRPRPPCMPRP was tested, and the “shrunken log2 fold change” value was -0.317. For RRIRMRPPRLPRPRPRPLHNPRP, the “shrunken log2 fold change” value was -0.127. RRIRCRPPRLPRPRPRPDDIPRP was tested, and the “shrunken log2 fold change” value was 0.0301. In the case of RRIRARPPRLPRPRPRPSGCPRP, the “shrunken log2 fold change” value is reported as 0.0438. With RRIRCRPPRLPRPRPRPMCVPRP the “shrunken log2 fold change” value was -0.185. With RRIRFRPPRLPRPRPRPFNQPRP the “shrunken log2 fold change” value was -0.161. In the case of RRIRHRPPRLPRPRPRPEQSPRP, the “shrunken log2 fold change” value is reported as -0.0805. In the case of RRIRERPPRLPRPRPRPIINPRP, the “shrunken log2 fold change” value is reported as -0.702. RRIRGRPPRLPRPRPRPHHPPRP was tested, and the “shrunken log2 fold change” value was 1.21. With RRIRNRPPRLPRPRPRPFRLPRP the “shrunken log2 fold change” value was -0.505. RRIRKRPPRLPRPRPRPAILPRP was tested, and the “shrunken log2 fold change” value was 0.0725. With RRIRDRPPRLPRPRPRPSKWPRP the “shrunken log2 fold change” value was -0.196. With RRIRPRPPRLPRPRPRPNVMPRP the “shrunken log2 fold change” value was -0.341. With RRIRVRPPRLPRPRPRPPWRPRP the “shrunken log2 fold change” value was 0.57. RRIRKRPPRLPRPRPRPYWAPRP was tested, and the “shrunken log2 fold change” value was -0.448. With RRIRARPPRLPRPRPRPWTAPRP the “shrunken log2 fold change” value was 0.871.
